Test results from patent US20210356479A1 (BLOODWORKS, published 2021).
Numbering of substitutions follows the chain as printed.

T1: human Kell glycoprotein, k form (KEL2) (human, UniProt P23276 1-732)
T1 construct: whole, on cells; On human k/k or K-k+ RBCs; also called k antigen
T1 sequence (looked up): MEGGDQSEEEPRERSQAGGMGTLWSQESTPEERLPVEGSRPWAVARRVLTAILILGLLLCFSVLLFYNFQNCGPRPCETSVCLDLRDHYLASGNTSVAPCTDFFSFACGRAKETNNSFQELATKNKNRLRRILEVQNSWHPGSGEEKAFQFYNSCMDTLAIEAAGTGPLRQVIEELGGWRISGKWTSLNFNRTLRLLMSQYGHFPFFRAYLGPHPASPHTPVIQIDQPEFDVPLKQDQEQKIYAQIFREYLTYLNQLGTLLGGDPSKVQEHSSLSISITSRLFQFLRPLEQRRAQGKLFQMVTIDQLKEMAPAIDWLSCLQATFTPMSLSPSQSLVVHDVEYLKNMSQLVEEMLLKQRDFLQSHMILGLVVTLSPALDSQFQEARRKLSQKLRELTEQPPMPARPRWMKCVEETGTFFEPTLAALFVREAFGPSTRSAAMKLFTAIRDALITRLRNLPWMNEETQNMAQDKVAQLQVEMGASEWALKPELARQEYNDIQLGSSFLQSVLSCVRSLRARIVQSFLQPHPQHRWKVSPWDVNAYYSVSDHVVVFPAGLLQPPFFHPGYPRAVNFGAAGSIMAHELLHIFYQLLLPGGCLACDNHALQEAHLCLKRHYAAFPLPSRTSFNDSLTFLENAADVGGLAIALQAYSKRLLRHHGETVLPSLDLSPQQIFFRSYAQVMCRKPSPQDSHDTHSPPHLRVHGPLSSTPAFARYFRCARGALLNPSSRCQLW

T2: human Kell glycoprotein, K form (KEL1) (human, UniProt P23276 1-732)
T2 construct: whole, on cells; On human K/K or K+k+ RBCs and on RBCs of K transgenic mice; also called K antigen; K variant
T2 sequence (looked up): T1 sequence (looked up) with T193M

T3: human Kell glycoprotein, Kp^b form (KEL4) (human, UniProt P23276 1-732)
T3 construct: whole, on cells; On human Kp^b/Kp^b RBCs
T3 sequence (looked up): T1 sequence (looked up)

T4: human Kell glycoprotein, Js^b form (KEL7) (human, UniProt P23276 1-732)
T4 construct: whole, on cells; On human Js^b/Js^b RBCs
T4 sequence (looked up): T1 sequence (looked up)

B1: PUMA 1 monoclonal anti-K antibody (antibody, mouse IgG2a, V domains shown)
VH: EVQLQQSGPELVKPGASVKMSCKASGYTFTDYYMKWVKQSHGKSLEWIGDLNPNNGDTFYNQKFKGKATLTVDKSSSTAYIQLNSLTSEDSAVYYCAREAGSSFGSSCNYWGQGTTLTVS
VL: SVVMTQTPKFLLVSAGDRVTITCKASQTVSKDVAWYQQQPGQSPKLLIYYASNRYTGVPDRFTGSGYGTDFTFTISTVQAEDLAVYFCQQDYSSPYTFGGGTKLEIK
notes: also called PUMA 2; PUMA ½
B2: PUMA 1 human IgG3-17 isoallotype (antibody)
heavy: B1 VH
light: B1 VL
notes: Isoallotype named in CLM-00007; not shown: human IgG3 heavy chain constant region, isoallotype IGHG3*17; human kappa light chain constant region (vector pFUSE2-CLIg-hk)
B3: PUMA 1 human IgG3-18 isoallotype (antibody)
heavy: B1 VH
light: B1 VL
notes: Isoallotype named in CLM-00007; not shown: human IgG3 heavy chain constant region, isoallotype IGHG3*18; human kappa light chain constant region (vector pFUSE2-CLIg-hk)
B4: PUMA 1 human IgG4-03 isoallotype (antibody)
heavy: B1 VH
light: B1 VL
notes: not shown: human IgG4 heavy chain constant region, isoallotype IGHG4*03; human kappa light chain constant region (vector pFUSE2-CLIg-hk)
B5: PUMA 1 human IgG3-19 isoallotype (antibody)
heavy: B1 VH
light: B1 VL
notes: Isoallotype named in CLM-00007; not shown: human IgG3 heavy chain constant region, isoallotype IGHG3*19; human kappa light chain constant region (vector pFUSE2-CLIg-hk)
B6: PUMA 1 human IgG4-02 isoallotype (antibody)
heavy: B1 VH
light: B1 VL
notes: not shown: human IgG4 heavy chain constant region, isoallotype IGHG4*02; human kappa light chain constant region (vector pFUSE2-CLIg-hk)
B7: PUMA 1 human IgG3-16 isoallotype (antibody)
heavy: B1 VH
light: B1 VL
notes: Isoallotype named in CLM-00007; not shown: human IgG3 heavy chain constant region, isoallotype IGHG3*16; human kappa light chain constant region (vector pFUSE2-CLIg-hk)
B8: PUMA 1 human IgG3-15 isoallotype (antibody)
heavy: B1 VH
light: B1 VL
notes: Isoallotype named in CLM-00007; not shown: human IgG3 heavy chain constant region, isoallotype IGHG3*15; human kappa light chain constant region (vector pFUSE2-CLIg-hk)
B9: PUMA 4 monoclonal antibody (antibody, V domains shown)
VH: EVKLEESGGGLVQPGGSMKLSCVASGFTFSNYWMNWVRQPPEKGLEWVAEIRLNSNNYATHYAESVKGKFTISRDDSKSSVYLQMNDLRAEDTGIYYCTRNWDFAWFDSWGQGTLVTVSA
VL: DIVMTQSHKFMSTSVGDRVSITCKASQDVSTVVAWYQQKPGQSPKLLIYWASTRHTGVPDRFTGSGSGTDYTLTISSVQAEDLALYYCQQHYTTPFTFGSGTKLEIK
notes: Mouse monoclonal from hybridoma
B10: PUMA 3 monoclonal antibody (antibody, V domains shown)
VH: QVQLKESGPGLLAPSQSLSITCTVSGFSLTSYGVYWVRQPPGKGLEWLGIIWGDGSTNYQSVLRSRLSITKDDSKSQVFLKLNSLQTDDTATYYCAKRGDYDVAYWGQGTLVTVSA
VL: DIVLTQSPASLAVSLGQRAIISCKASQTVSEVGTSLMHWYQQRPGQQPKLLIYRTSNLEAGVPTRFSGSGSRTDFTLNIHPVEEDDAATYYCQQSREFPWTFGGGTRLEIK
notes: as for B9

Columns and labels:
[1] = target: T1, human Kell glycoprotein, k form (KEL2); test: flow cytometry, indirect immunofluorescence on k/k human RBCs
Experimental: (§1) The specificities of the antibodies were determined to be: PUMA ½ (KEL1 or K), PUMA 3 (a common Kell epitope, PUMA 4 (KEL4 or Kp^b). Flow cytometry was utilized to test antibody specificity by indirect immunofluorescence, using the monocolonal antibodies as the primary reagent and a goat-anti-mouse antibody (conjugated to allophycocyanin) as a secondary antibody. Different target cells expressing different Kell variants were used to determine specificity. Targets included RBCs that phenotyped as homozygous for the 3 main antithetical antigens in the Kell system, K/K, k/k, Kp^{b/}Kp^b, Kp^{a/}Kp^a. Js^{b/}J^b, Js^{a/}Js^a. Differential binding to such tarets tests specificity. In the case of PUMA ½, binding was only observed when K was present but not on k/k RBCs. In the case of PUMA 3, binding was observed on all RBCs regardless of phenotype for K/k, Kp^{a/}Kp^{b,} or Js^{a/}Js^b, thus indicating a common epitope outside these systems. However, PUMA 3 bound to only KELL glycoprotein transgenic murine RBCs and not wild-type murine RBCs; thus, the epitope recognized by PUMA 3 is on the KELL molecule, but not K/k, Kp^{a/}Kp^b, or Js^{a/}Js^b. For PUMA 4, binding was only observed when Kp^b was present but not on Kp^{a/}Kp^a RBCs.

[2] = target: T2, human Kell glycoprotein, K form (KEL1); test: flow cytometry on K transgenic mouse RBCs
[3] = target: T1, human Kell glycoprotein, k form (KEL2); test: flow cytometry on human K-k+ RBCs
[4] = target: T2, human Kell glycoprotein, K form (KEL1); test: flow cytometry on human K+k+ RBCs, detected with polyclonal anti-IgG
Experimental: Flow cytometry consisted of incubating test RBCs with PUMA 1 variants, followed by the anti-IgG being evaluated, followed by a detection reagent. Test RBCs included RBCs from K mice, wild-type mice, and reagent RBCs from humans with the phenotype of (K+k+) or (K−k+). Test RBCs were resuspended in 50 microliters of supernatants of PUMA 1 isoallotypes; in some cases a 1/10 dilution in phosphate buffered saline (PBS) was used. For purified IgG1-IgG4 PUMA 1, the antibodies were diluted in PBS at the indicated concentrations. The tested anti-IgG reagents were used undiluted. Detection reagents consisted of donkey anti-rabbit conjugated to phycoerythrin at a 1/200 dilution (Affymetrix cat #12-4739-81, Santa Clara, Calif.), goat anti-mouse IgM conjugated to allophycocyanin at a 1/100 dilution (BD Biosciences, cat #550826, San Jose, Calif.), and goat anti-mouse Igs conjugated to allophycocyanin at a 1/100 dilution (SouthernBiotech cat #1020-11s, Birmingham, Ala.). All anti-IgG subclass antibodies were conjugated to phycoerythrin, were purchased from SouthernBiotech (catalog numbers 9056-09, 9070-09, 9210-09, 9200-09), and were used at a dilution of 1.200. All incubations were performed for 30 min at room temperature, followed by three washes with PBS. All flow cytometry was performed on an Accuri 4 color cytometer (BD biosciences, San Jose Calif.) and all data was analyzed with Flo-Jo version 10.
To assess the sensitivity of commercially available anti-IgG preparations for different human IgG subclasses bound to RBCs, K+k+ RBCs were first incubated with PUMA 1 of the different human IgG subclasses, followed by incubation with anti-IgG. Treated RBCs were then stained with a fluorescently labeled antibody specific for the species in which the anti-IgG was generated (and non-reactive with human IgG). For each anti-IgG, the same secondary antibody was used to detect binding of the anti-IgG to each human PUMA 1 IgG subclass. To assess relative sensitivity, titrations of each PUMA 1 IgG subclass were carried out and samples were analyzed by flow cytometry using mean fluorescent intensity (MFI) to quantify staining (FIGS. 28A, 28B).

[5] = target: T3, human Kell glycoprotein, Kp^b form …; test: flow cytometry, indirect immunofluorescence on human RBCs
Experimental: as §1

[6] = target: T3, human Kell glycoprotein, Kp^b form …; test: flow cytometry, indirect immunofluorescence on Kp^b/Kp^b human RBCs
Experimental: as §1

[7] = target: T4, human Kell glycoprotein, Js^b form …; test: flow cytometry, indirect immunofluorescence on Js^b/Js^b human RBCs
Experimental: as §1

[8] = target: T2, human Kell glycoprotein, K form (KEL1); test: flow cytometry, indirect immunofluorescence on K/K human RBCs
Experimental: as §1

| Binder | binding result [3] | binding result [4] | other results |
| --- | --- | --- | --- |
| B1 | – | – | binding result [1]: no binding; binding result [2]: binds |
| B2 | no binding | binds | – |
| B3 | no binding | binds | – |
| B4 | no binding | binds | – |
| B5 | no binding | binds | – |
| B6 | no binding | binds | – |
| B7 | no binding | binds | – |
| B8 | no binding | binds | – |
| B9 | – | – | binding result [5]: binds |
| B10 | – | – | binding result [6]: binds; binding result [7]: binds; binding result [8]: binds; binding result [1]: binds |
